Experimental findings from patent US20240294593A1 (Genentech, published 2024) are described below.

Assay [1] addresses T1, human PD-1-His (human, UniProt Q15116 25-167, limits assumed).
T1 construct: Antigen of the Octet assays; not shown: His tag
Kind of assay: Octet.

Assay [2] concerns the target T1, human PD-1-His. Kind of assay: Octet. The source holds these as a separate data set.
Assay [3] deals with T1, human PD-1-His. The assay is described as follows: Octet [D00120 Figure 65H]. The source says: In particular, anti-human IgG-Fc (AHC) biosensors were used to capture the test articles and dipped into multiple concentrations of PD-1.

Numbering of substitutions follows the chain as printed. Names may count otherwise.

T1 sequence (Q15116 25-167 limits assumed): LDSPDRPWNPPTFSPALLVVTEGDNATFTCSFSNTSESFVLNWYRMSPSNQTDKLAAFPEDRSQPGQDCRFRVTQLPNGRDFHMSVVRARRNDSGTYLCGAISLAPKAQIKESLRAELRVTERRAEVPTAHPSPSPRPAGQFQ

B1: H1.151_L1 (antibody, V domains shown)
VH: EVQLVESGGGLVQPGGSLRLSCAASGFTFSSFGMHWVRQAPGKGLEWVSYISSGSSIIYYADSVKGRFTISRDNAKNSLYLQMNSLRAEDTAVYYCARGGRLVFSPDYWGQGTLVTVSS
VL: DIVMTQSPDSLAVSLGERATINCKSSQSLLNSGNQKNYLTWYQQKPGQPPKLLIYWASTRESGVPDRFTGSGSGTDFTLTISSLQAEDVAVYYCQNDYSYPFTFGSGTKLEIKR
notes: also called VH-W112F; Kabat 100
Turning to B1, in the assay with human PD-1-His [1], the Kd was 309 nM, the koff worked out at 0.087 s⁻¹ and the kon was 282000 M⁻¹ s⁻¹.

B2: H1_L1.50 (antibody, V domains shown)
VH: B1 VH with F104W
VL: B1 VL with N37S
notes: also called VL-N37S; Kabat 31
Consider B2, for which, in the assay with human PD-1-His [2], the Kd turned out to be 42.1 nM, the koff is 0.00409 s⁻¹ and the kon was 97100 M⁻¹ s⁻¹.

B3: H1_L1.80 (antibody, V domains shown)
VH: B1 VH with F104W
VL: B1 VL with T59H
notes: also called VL-T59H; Kabat 53
Regarding B3, in the assay with human PD-1-His [3], binding was put at a Kd of 51 nM, the koff is 0.00578 s⁻¹ and the kon came to 113000 M⁻¹ s⁻¹.

B4: H1_L1.66 (antibody, V domains shown)
VH: B1 VH with F104W
VL: B1 VL with W56F
notes: also called VL-W56F; Kabat 50
In the assay with human PD-1-His [3], B4 displayed a Kd of 35.3 nM, a koff of 0.00339 s⁻¹ and a kon of 96200 M⁻¹ s⁻¹.

B5: H1_L1.86 (antibody, V domains shown)
VH: B1 VH with F104W
VL: B1 VL with E61S
notes: also called VL-E61S; Kabat 55
In the assay with human PD-1-His [3], B5 yielded a Kd of 40.6 nM, a koff of 0.0047 s⁻¹ and a kon of 116000 M⁻¹ s⁻¹.

B6: H1_L1.71 (antibody, V domains shown)
VH: B1 VH with F104W
VL: B1 VL with W56Q
notes: also called VL-W56Q; Kabat 50
For the molecule B6, in the assay with human PD-1-His [3], the Kd is 47.1 nM, the koff came to 0.0043 s⁻¹ and the kon came to 91400 M⁻¹ s⁻¹.

B7: H1_L1.83 (antibody, V domains shown)
VH: B1 VH with F104W
VL: B1 VL with T59Y
notes: also called VL-T59Y; Kabat 53
As to B7, in the assay with human PD-1-His [3], binding was put at a Kd of 64.3 nM, the koff came out at 0.00603 s⁻¹ and the kon was found to be 93800 M⁻¹ s⁻¹.

B8: H1_L1.67 (antibody, V domains shown)
VH: B1 VH with F104W
VL: B1 VL with W56L
notes: also called VL-W56L; Kabat 50
In the assay with human PD-1-His [3], B8 displayed a Kd of 41.6 nM, a koff of 0.00418 s⁻¹ and a kon of 100000 M⁻¹ s⁻¹.

B9: H1_L1.69 (antibody, V domains shown)
VH: B1 VH with F104W
VL: B1 VL with W56I
notes: also called VL-W56I; Kabat 50
In the assay with human PD-1-His [3], B9 gave a Kd of 25.9 nM, a koff of 0.00244 s⁻¹ and a kon of 94400 M⁻¹ s⁻¹.

B10: H1_L1.75 (antibody, V domains shown)
VH: B1 VH with F104W
VL: B1 VL with T59V
notes: also called VL-T59V; Kabat 53
In the assay with human PD-1-His [3], B10 had a Kd of 45.3 nM, a koff of 0.00496 s⁻¹ and an on-rate constant (kon) of 110000 M⁻¹ s⁻¹.

B11: H1_L1.49 (antibody, V domains shown)
VH: B1 VH with F104W
VL: B1 VL with N37E
notes: also called VL-N37E; Kabat 31
In the assay with human PD-1-His [2], B11 had a Kd of 61.1 nM, a koff of 0.00697 s⁻¹ and a kon of 114000 M⁻¹ s⁻¹.

B12: H1_L1.81 (antibody, V domains shown)
VH: B1 VH with F104W
VL: B1 VL with T59D
notes: also called VL-T59D; Kabat 53
In the assay with human PD-1-His [3], B12 yielded a Kd of 51.4 nM, a koff of 0.00606 s⁻¹ and a kon of 118000 M⁻¹ s⁻¹.

B13: H1_L1.88 (antibody, V domains shown)
VH: B1 VH with F104W
VL: B1 VL with E61A
notes: also called VL-E61A; Kabat 55
In the assay with human PD-1-His [3], B13 gave a Kd of 43.3 nM, a koff of 0.00411 s⁻¹ and a kon of 95000 M⁻¹ s⁻¹.

B14: H1_L1.79 (antibody, V domains shown)
VH: B1 VH with F104W
VL: B1 VL with T59Q
notes: also called VL-T59Q; Kabat 53
In the case of B14, in the assay with human PD-1-His [3], binding was characterised by a dissociation constant (Kd) of 55.5 nM, the koff was found to be 0.00731 s⁻¹ and the kon amounted to 132000 M⁻¹ s⁻¹.

B15: H1_L1.85 (antibody, V domains shown)
VH: B1 VH with F104W
VL: B1 VL with E61K
notes: also called VL-E61K; Kabat 55
For the molecule B15, in the assay with human PD-1-His [3], the Kd is 31.8 nM, the koff turned out to be 0.00316 s⁻¹ and the kon was found to be 99400 M⁻¹ s⁻¹.

B16: H1_L1.77 (antibody, V domains shown)
VH: B1 VH with F104W
VL: B1 VL with T59A
notes: also called VL-T59A; Kabat 53
In the assay with human PD-1-His [3], B16 showed a Kd of 50.3 nM, a koff of 0.00535 s⁻¹ and an association rate constant (kon) of 106000 M⁻¹ s⁻¹.

B17: H1_L1.74 (antibody, V domains shown)
VH: B1 VH with F104W
VL: B1 VL with W56R
notes: also called VL-W56R; Kabat 50
In the assay with human PD-1-His [3], B17 returned a Kd of 265 nM, a koff of 0.0244 s⁻¹ and a kon of 92300 M⁻¹ s⁻¹.

B18: H1_L1.82 (antibody, V domains shown)
VH: B1 VH with F104W
VL: B1 VL with T59K
notes: also called VL-T59K; Kabat 53
As to B18, in the assay with human PD-1-His [3], binding was put at a Kd of 52.6 nM, the koff stood at 0.00602 s⁻¹ and the association rate constant (kon) stood at 114000 M⁻¹ s⁻¹.

B19: H1_L1.68 (antibody, V domains shown)
VH: B1 VH with F104W
VL: B1 VL with W56Y
notes: also called VL-W56Y; Kabat 50
In the assay with human PD-1-His [3], B19 returned an equilibrium dissociation constant (Kd) of 178 nM, a koff of 0.0166 s⁻¹ and a kon of 92900 M⁻¹ s⁻¹.

B20: H1_L1.78 (antibody, V domains shown)
VH: B1 VH with F104W
VL: B1 VL with T59I
notes: also called VL-T59I; Kabat 53
Consider B20, for which, in the assay with human PD-1-His [3], binding was characterised by a dissociation constant (Kd) of 56.8 nM, the koff was 0.00581 s⁻¹ and the kon came out at 102000 M⁻¹ s⁻¹.

B21: H1_L1.45 (antibody, human IgG1, kappa, V domains shown)
VH: B1 VH with F104W
VL: B1 VL with K36Y
notes: also called VL-K36Y; Kabat 30
Turning to B21, in the assay with human PD-1-His [2], the affinity, expressed as Kd, was 8.6 nM; the koff was found to be 0.00135 s⁻¹; the kon was 157000 M⁻¹ s⁻¹.

B22: H1_L1.72 (antibody, V domains shown)
VH: B1 VH with F104W
VL: B1 VL with W56S
notes: also called VL-W56S; Kabat 50
In the assay with human PD-1-His [3], B22 had a Kd of 60.3 nM, a koff of 0.00348 s⁻¹ and a kon of 57700 M⁻¹ s⁻¹.

B23: H1_L1.76 (antibody, V domains shown)
VH: B1 VH with F104W
VL: B1 VL with T59S
notes: also called VL-T59S; Kabat 53
In the assay with human PD-1-His [3], B23 displayed a dissociation constant Kd of 55 nM, a koff of 0.00512 s⁻¹ and an association rate constant (kon) of 93100 M⁻¹ s⁻¹.

B24: H1_L1.73 (antibody, V domains shown)
VH: B1 VH with F104W
VL: B1 VL with W56D
notes: also called VL-W56D; Kabat 50
Take B24: in the assay with human PD-1-His [3], the affinity, expressed as Kd, was 51.6 nM; the koff is 0.00455 s⁻¹; the kon is 88100 M⁻¹ s⁻¹.

B25: H1_L1.47 (antibody, V domains shown)
VH: B1 VH with F104W
VL: B1 VL with N37D
notes: also called VL-N37D; Kabat 31
In the case of B25, in the assay with human PD-1-His [2], the Kd is 23.8 nM, the off-rate constant (koff) is 0.00353 s⁻¹ and the kon amounted to 149000 M⁻¹ s⁻¹.

B26: H1_L1.70 (antibody, V domains shown)
VH: B1 VH with F104W
VL: B1 VL with W56H
notes: also called VL-W56H; Kabat 50
As for B26, in the assay with human PD-1-His [3], the Kd was determined as 30.9 nM, the koff was determined as 0.00281 s⁻¹ and the kon is 90700 M⁻¹ s⁻¹.

B27: H1_L1.46 (antibody, V domains shown)
VH: B1 VH with F104W
VL: B1 VL with K36I
notes: also called VL-K36I; Kabat 30
For B27, in the assay with human PD-1-His [2], the Kd came to 26.4 nM, the koff came to 0.00324 s⁻¹ and the on-rate constant (kon) worked out at 123000 M⁻¹ s⁻¹.

B28: H1_L1.44 (antibody, V domains shown)
VH: B1 VH with F104W
VL: B1 VL with K36G
notes: also called VL-K36G; Kabat 30
For the molecule B28, in the assay with human PD-1-His [2], binding was put at a Kd of 19.9 nM, the koff was 0.00291 s⁻¹ and the kon amounted to 146000 M⁻¹ s⁻¹.

B29: H1_L1.65 (antibody, V domains shown)
VH: B1 VH with F104W
VL: B1 VL with T40A
notes: also called VL-T40A; Kabat 34
In the assay with human PD-1-His [3], B29 displayed a Kd of 98 nM, a koff of 0.00949 s⁻¹ and a kon of 96800 M⁻¹ s⁻¹.

B30: H1_L1.48 (antibody, V domains shown)
VH: B1 VH with F104W
VL: B1 VL with N37H
notes: also called VL-N37H; Kabat 31
Take B30: in the assay with human PD-1-His [2], binding was put at a Kd of 80.1 nM, the koff turned out to be 0.00785 s⁻¹ and the kon turned out to be 98000 M⁻¹ s⁻¹.

B31: H1_L1.84 (antibody, V domains shown)
VH: B1 VH with F104W
VL: B1 VL with E61Q
notes: also called VL-E61Q; Kabat 55
In the assay with human PD-1-His [3], B31 showed a Kd of 46 nM, a koff of 0.00478 s⁻¹ and a kon of 104000 M⁻¹ s⁻¹.

B32: H1_L1.87 (antibody, V domains shown)
VH: B1 VH with F104W
VL: B1 VL with E61H
notes: also called VL-E61H; Kabat 55
In the assay with human PD-1-His [3], B32 registered a Kd of 50.9 nM, a koff of 0.00552 s⁻¹ and a kon of 109000 M⁻¹ s⁻¹.

B33: H1_L1.89 (antibody, V domains shown)
VH: B1 VH with F104W
VL: B1 VL with E61G
notes: also called VL-E61G; Kabat 55
In the assay with human PD-1-His [3], B33 showed a Kd of 43.9 nM, a koff of 0.00403 s⁻¹ and a kon of 91900 M⁻¹ s⁻¹.
